Measured values taken from US20230057622A1.
Read-outs that look alike come from different tables or passages of the source.

What was measured:
receptor on MCF-7 cells [1] = test: cell-based or functional assay
receptor on MCF-7 cells [2] = test: cell-based or functional assay; remark: listed apart in the source

EC50 (receptor on MCF-7 cells [1]): 1.65 nM | EC50 (receptor on MCF-7 cells [2]): 0.924 nM
Substance: recombinant NRG polypeptide with an amino acid sequence of SEQ ID NO: 1 (from UniProt Q02297-11 122-190) (ligand)
